Laboratory results from patent US20250207145A1, “URIDINE DIPHOSPHATE-GLYCOSYLTRANSFERASE AND A […], TISSUE, AND ORGANISM COMPRISING SAME” (YEDA RESEARCH AND DEVELOPMENT CO. LTD., priority 2022, published 2025).

How the values were obtained:
Format in all cases: biochemical
[1] = UGT enzyme assay with crude E. coli lysates, UDP-Glc as sugar donor; conditions: crude lysate, substrates OA, CBGA, heliCBGA, FIG. 8
Protocol: Selected UGT genes from Helichrysum were individually cloned into the pET28b vector and expressed in E. coli BL21 (DE3) cells. Bacterial starters were grown overnight in LB medium at 37° C., diluted in fresh LB 1:100, and re-incubated at 37° C. When cultures reached A600=0.6, protein expression was induced with 400 μM of isopropyl-1-thio-β-d-galactopyranoside (IPTG) overnight at 15° C. Bacterial cells were lysed by sonication in 50 mM Tris-HCl pH 8, 0.5 mM phenylmethylsulfonyl fluoride (PMSF, Sigma Aldrich) solution in isopropanol, 10% glycerol and protease inhibitor cocktail (Sigma Aldrich), and 1 mg ml-1 lysozyme (Sigma Aldrich). […] Protein concentration of the eluted fractions was measured with Pierce™ 660 nm protein assay reagent (Thermo Scientific).
Recombinant UGT assays using different aromatic substrates were performed by mixing 1.5 μl of the UDP solution (80 mM, final concentration: 2.5 mM), 27.5 μl Tris buffer (100 mM), 1 μl of each of the substrates (50 mM, final concentration: 1 mM) and 20 μl of the lysate enzyme solution. […] To stop the reactions, 100 μl methanol was added to each tube, and the compounds were extracted and analyzed as previously described. […] […]

[2] = In vitro assays with purified UGTs and an array of cannabinoid substrates; conditions: purified enzymes
Protocol: Selected UGT genes from Helichrysum were individually cloned into the pET28b vector and expressed in E. coli BL21 (DE3) cells. Bacterial starters were grown overnight in LB medium at 37° C., diluted in fresh LB 1:100, and re-incubated at 37° C. When cultures reached A600=0.6, protein expression was induced with 400 μM of isopropyl-1-thio-β-d-galactopyranoside (IPTG) overnight at 15° C. Bacterial cells were lysed by sonication in 50 mM Tris-HCl pH 8, 0.5 mM phenylmethylsulfonyl fluoride (PMSF, Sigma Aldrich) solution in isopropanol, 10% glycerol and protease inhibitor cocktail (Sigma Aldrich), and 1 mg ml-1 lysozyme (Sigma Aldrich). The whole-cell extract was either kept for functional activity or used for protein purification. Purification of proteins was performed on Ni-NTA agarose beads (Adar Biotech). The proteins were eluted with 200 mM imidazole (Fluka) in buffer containing 50 mM NaH2PO4, pH 8 and 0.5 M NaCl. Protein concentration of the eluted fractions was measured with Pierce™ 660 nm protein assay reagent (Thermo Scientific).
Recombinant UGT assays using different aromatic substrates were performed by mixing 1.5 μl of the UDP solution (80 mM, final concentration: 2.5 mM), 27.5 μl Tris buffer (100 mM), 1 μl of each of the substrates (50 mM, final concentration: 1 mM) and 20 μl of the lysate enzyme solution. The reactions were incubated at 30° C. for 1 h. To stop the reactions, 50 μl methanol were added to each tube, vortexed for 10 s, centrifuged at maximum speed for 10 min, and then the supernatant was recovered and used for UPLC-qTOF analysis. The assay with the purified UGTs was performed by mixing 2 μl of the cannabinoid acceptors (OA, DHSA, CBGA, heliCBGA, CBDA, A9-THCA, CBCA, olivetol, CBG, CBD or 49-THC, hexanoylphloroglucinol, naringenin chalcone or pinocembrin chalcone) in the presence of 1.5 μl UDP 80 mM, 46.5 μl Tris buffer (100 mM, pH 8.0) and 1 μl of each enzyme. To stop the reactions, 100 μl methanol was added to each tube, and the compounds were extracted and analyzed as previously described. Kinetics assays were performed with the purified enzymes (1.5 μg/μl) dissolved in 45 μl Tris buffer (100 mM, pH 8.0) and substrates were added using varying (0.5 μM-3 mM) and constant (1 mM) concentrations of OA and UDP and the total reaction volume was 50 μl. To stop the reactions, 100 μl methanol was added to each tube, and the compounds were extracted and analyzed as previously described.
Next, the inventors recombinantly expressed eleven of the thirteen UGTs from Helichrysum in E. coli and used the crude lysate to examine the activity of the proteins using OA, CBGA, and heliCBGA in a reaction including UDP-Glc as the sugar donor. […] The inventors screened the LC/HRMS chromatograms for glucosylated and diglucosylated products according to the theoretical m/z values. […] All the enzymes were active with varying substrate specificity and products produced.

[3] = Steady state kinetics assays of purified UGTs with OA and UDP; conditions: OA 0.5 μM-3 mM varying, UDP 1 mM constant; compared HuUGT11, HuUGT13, OsUGT, SrUGT; FIG. 12
Protocol: FIGS. 12A-12B include curves and a table showing comparison of steady state kinetic analysis of HuUGT11 and HuUGT13 versus OsUGT and SrUGT, with olivetolic acid and UDP-glc. (12A) The Michaelis-Menten Km value of each enzyme was calculated using varying (0.5 μM-3 mM) and constant (1 mM) concentrations of olivetolic acid and […] (n=3 technically independent samples; measurements were plotted individually). Since there was no analytical standard available for Glc-OA, V0 was calculated using the calibration curve of OA. (12B) A summary of the results presented in 12A. V0 and Vmax were calculated using the calibration curve of OA since there was no analytical standard available for Glc-OA.
Recombinant UGT assays using different aromatic substrates were performed by mixing 1.5 μl of the UDP solution (80 mM, final concentration: 2.5 mM), 27.5 μl Tris buffer (100 mM), 1 μl of each of the substrates (50 mM, final concentration: 1 mM) and 20 μl of the lysate enzyme solution. The reactions were incubated at 30° C. for 1 h. […] To stop the reactions, 100 μl methanol was added to each tube, and the compounds were extracted and analyzed as previously described. […] To stop the reactions, 100 μl methanol was added to each tube, and the compounds were extracted and analyzed as previously described.

Molecule | activity of lysates containing HuUGTs on the different substrates [1] | activity on the cannabinoid intermediates [2] | activity on the prenylated compounds [2] | diglucosylation of acid compounds ([2]; UDP-glc, FIG. 11) | catalytic performance in kinetics assays versus the other enzymes [3]
HuUGT13: UDP-glycosyltransferase from Helichrysum umbraculigerum, recombinantly expressed in E. coli (protein, listed as Helichrysum umbraculigerum) MSLVTNNPHLLVYPLPTSGHIIPLLDLTDLLLRRGLTITVVISTTDLTLLDTLLSSHPTSLHKLYFPDPEIGPSSHPVIARIIATQKLFDPIVKWFESHPSPPVAIISDFFLGWTNELASRLGIRRVVFSPSGALGHSILQSLWRDVAEINAKNVDGNGNYSISFTDIPNSPEFHWWQLSQLLRVHREGDPDFEFFRNGMLANTKSWGIVYNTFERIEKVYIDHVKKQIGHDRVWAIGPLLPEEHGPVGSTARGGSSVVPPHDLLTWLDKKPHDSVVYICFGSRLTLSEKQMSALASALELSNVDFILCVKASGSSFIPSGFEDRVVGRGFVIKGWAPQLAILRHRAVGSFVTHCGWNSTLEGVSSGVMMLTWPMGADQYANAKLLVDQLGVGKRVCEGGPESVPDSTELARLLEESLSGDTSERVKVKELSREANTAVKEGTSIRDLNMFVNLLSEL | showed activity | highly active | almost inactive |  | 
HuUGT6: UDP-glycosyltransferase from Helichrysum umbraculigerum, recombinantly expressed in E. coli (protein, listed as Helichrysum umbraculigerum) MTQKQMQMQPHFLLVTYPAQGHINPSLQFAERLIRLGVKVTFTTTVSAYRRMSKAGNISEFLNFAAFSDGFDDGFNFETDDHGLFLTQLRSRGKDSLKETILSNAKNGTPISCLVYTLLLPWAPEVARGLNVPSAFLWIQPASVLRLYYYYFNGYNELIGDDCNEPSWSIQLPGLPLLKS |  |  |  | only observed in case of HuUGT6 | 
HuUGT11: UDP-glycosyltransferase from Helichrysum umbraculigerum, recombinantly expressed in E. coli (protein, listed as Helichrysum umbraculigerum) MGSLKKGAHILIFPFPAQGHMLPLLDLTHHLATNGLTITILVTPKNLPILNPLLSSSPNIQPLVFPFPPHPRLPPHVENVKDIGNHANVPITNSLAKLQDQIIQWFNSHHNPPVAIISDFFLGWTQHLANKLGIPRVGFFSSGAYLTAVLDYVCHNIKTVRSQEETVFHDLPNSPCFKFEHLPGLAQIYKESDPEWELVLDGHIANGLSWGWIVNTFDGLESRYMEYLTKKMGVGRVFGVGPVNLLNGSDPMTRGKSESGSDSGVLNWLDGKPDGSVLYVCFGSQKFLTNDQMEGLSIGLEQSGVHYVWVVKDEQGDAIRSGSGRGLVVTGWAPQVSILGHGAVGGFLSHCGWNSVLEAIVNGVMILAWPMEADQFVNAKLLVDDHGIGVWVCEGPNTVPDSTELARKIGESMSTDKSEKVKAKEMKNKANEAVKEGGSSSMELSRLVKELSNFETNGP | showed activity | highly active | almost inactive |  | impressive catalytic advantage
